The record followed here is patent US20130261049A1, “ALPHABODIES SPECIFICALLY BINDING TO CLASS-I VIRAL FUSION PROTEINS AND METHODS FOR PRODUCING THE SAME” (priority 2011, published 2013).

Like-named read-outs stand apart in the source and are kept apart here.

Data set [1] has as its system HIV strain HXB2 in MT4-X4 cells. The experiment in a line: microbe, parasite or virus in culture. Conditions: read-out: 50% inhibition concentration (IC50). The text has this:
The virus used in this assay was the laboratory adapted reference strain HXB2 virus using CXCR4 as co-receptor. Cells were infected with 100 TCID50/ml of virus in the presence of three-fold dilutions of Alphabody starting at 2.5 microM. […] MTT is reduced to formazan by living cells. Solubilization of the formazan crystals results in a colored product that can be measured by spectrophotometry at 540 nm. The cellular toxicity of the Alphabodies was monitored in the same assay using the same read-out, i.e. cell survival. As controls, the clinically approved T20 peptide (Fuzeon®, Roche) was used, as well as the CXCR4 antagonist, AMD3100 (Mozobile™, Genzyme).

The next data set concerns HIV strain HXB2 in PBMC. The experiment in a line: microbe, parasite or virus in culture. The following applies: read-out: 50% inhibition concentration (IC50). The method, then: PBMC were infected with 4000 TCID50/ml of virus and added to serial dilutions of scAB_C2 starting at 2 microM. After 7 days, the amplification of the virus in absence and presence of scAB_C2 was monitored by measuring the viral p24 concentration. The maximal p24 concentration was measured when PBMC and virus were incubated without inhibitory molecules and was set at 100% viral amplification. As controls, the clinically approved T20 (Fuzeon®, Roche) was used, as well as the CXCR4 antagonist, AMD3100 (Mozobile™, Genzyme).

A short description of data set [2]: CD thermal denaturation scan in GuHCl. The format is physicochemical. Conditions: CD at 222 nm, 11 microM protein in 5 M GuHCl. The method, then: This coding sequence was subcloned into the pET22b vector (Novagen). […] The resulting construct was transformed into the host E. coli strain BL21(DE3) harboring a chromosomal copy of the T7 polymerase gene under control of the lacUV5 promoter (DE3 lysogen). Transformed cells were grown in medium supplemented with ampicillin and protein expression was induced by the addition of IPTG to exponentially growing cultures. Cells containing the expressed Alphabodies were collected by centrifugation and the pellets were resuspended in 50 mM Tris, 500 mM NaCl, pH 7.8. Cells were then disrupted by sonication and spun down for cell debris removal. The cleared supernatants were applied onto a HITrap IMAC HP column (GE Healthcare) loaded with Ni^2+ ions. Bound proteins were eluted by applying an imidazole gradient from 5 to 1000 mM. Alphabody-containing fractions were pooled, concentrated and loaded on a Superdex 75 size exclusion chromatography (SEC) column (GE Healthcare). During this final purification step, the buffer was changed to 50 mM Tris, 150 mM NaCl, pH 7.8.

The target in data set [3] is HIV-1 gp41 HR2-derived biotinylated peptide C36 (HIV-1 HXB2). The experiment in a line: ELISA, biotinylated peptide on streptavidin plates, sigmoid fit (apparent KD). (In general: An ELISA detects its analyte on a solid surface through an enzyme-linked reagent.)
The nature of data set [4]: Aggregation tendency (visual inspection, OD 340 nm, SEC profiles, SDS-PAGE). The following applies: concentration ranges tested, typically up to 1 μM. The format is physicochemical. As for the experimental part: (§1) However, for these constructs, subcloning of synthetic genes was performed in the pET16b vector (Novagen), instead of in pET22b, in order to have an N-terminal 10-histidine tag.
as §1

[5] abbreviates: MT4-X4 cells, HXB2 virus, 5 day, cell survival by MTT.
Setting [6] is: PBMC, HXB2 virus, 7 day, viral p24.

Turning to enfuvirtide, the IC50 is 6 nM in data set [1] (setting [5]) and 60 nM with HIV strain HXB2 in PBMC (setting [6]).
For `c1cc(CN2CCCNCCNCCCNCC2)ccc1CN1CCCNCCNCCCNCC1` [AMD3100], the IC50 in data set [1] (Human immunodeficiency virus 1, HXB2, 120 h) is 54 nM; in the data set on HIV strain HXB2 in PBMC (Human immunodeficiency virus 1, HXB2, PBMC, 168 h), 97 nM.

B1: scAB013_C2: gp41 HR2-mimicking Alphabody, SEQ ID No: 69, expressed with C-terminal (His)6 tag (protein)
chain: MSIEEIQKQIAAIQKQIAAIQKQIYRMTGGSSGGSMQMYTIQIQILIIQAQIQQIQNQIELMTLGGSSGGMSIEEIQKQIAAIQKQIAAIQKQIYRMTP
modifications: C-terminal His6 tag; Alphabody ′scAB013_C2′ sequence
With B1, in data set [2], the “transition temperature Tm” value was found to be 72 °C. For the same molecule, the IC50 in data set [1] (setting [5]) was determined as 62 nM; in the data set on HIV strain HXB2 in PBMC (setting [6]), 218 nM.

B2: Alphabody scAB013_C2 with C-terminal Leu-Glu-(His)6 tag (designed binder)
chain: MSIEEIQKQIAAIQKQIAAIQKQIYRMTGGSSGGSMQMYTIQIQILIIQAQIQQIQNQIELMTLGGSSGGMSIEEIQKQIAAIQKQIAAIQKQIYRMTPLEHHHHHH
With B2, the Kd in data set [3] is greater than 10000 nM.

B3: scAB013_C2mut: monofunctional control of scAB_Bis with B-helix mutations only, SEQ ID No: 80 (protein)
chain: MGHHHHHHHHHHSSHIEGRHMSIEEIQKQIAAIQKQIAAIQKQIYRMTGGSGGSGGDMAMYAIQIAILIIQAQIQQIQNEIALMTLGSGGGGSGMSIEEIQKQIAAIQKQIAAIQKQIYRMTP
modifications: Alphabody helix sequence scAB013_C2mut
For B3, in data set [4], the tendency to aggregate result was “None of the three Alphabodies showed tendency to aggregate”.

B4: scAB_RsvN2: Alphabody with grafted HRSV N-trimer-like binding groove, SEQ ID No: 72 (protein)
chain: SAAIESTQQAIASIQNAIAVIQQKIYDLTGGSGGSGGMSIEEIQKQIAAIQKQIAAIQKQIYRMTGSGGGGSGMSLLEINKQVVAISQQISAITKQILRMKNTP
modifications: Alphabody ′scAB_RsvN2′ sequence
On to B4, for which the tendency to aggregate result in data set [4] is “None of the three Alphabodies showed tendency to aggregate”.

B5: scAB_RsvN1: Alphabody with grafted HRSV N-trimer-like binding groove, SEQ ID No: 71 (protein)
chain: SAEIQKIQSAIASTQQAIASLQNAIYVFTGGSGGSGGMSIEEIQKQIAAIQKQIAAIQKQIYRMTGSGGGGSGMSINEIKKQLLAINKQVVAIAQQVSAMSPSR
modifications: Alphabody ′scAB_RsvN1′ sequence
As to B5, the tendency to aggregate result in data set [4] was “None of the three Alphabodies showed tendency to aggregate”.

B6: scAB_RsvC2: Alphabody with grafted HRSV HR2-like B-helix, SEQ ID No: 75 (protein)
chain: MSIEEIQKQIAAIQKQIAAIQKQIYRMTGGSGGSGGDVQIKIIQSQIYIIQSDILLIQAQISRMTGSGGGGSGMSIEEIQKQIAAIQKQIAAIQKQIYRMTP
modifications: Alphabody ′scAB_RsvC2′ sequence
For B6, the tendency to aggregate result in data set [4] was “None of the three Alphabodies showed tendency to aggregate”.

B7: scAB_Env03mut: monofunctional control of scAB_Bis with A- and C-helix mutations only, SEQ ID No: 79 (protein)
chain: MGHHHHHHHHHHSSHIEGRHGSAIQQIQKAIATIQKAIAWIQKKIYMITGGSGGSGGGSIEEIQKQIAAIQKQIAAIQKQIYAITGSGGGGSGGDIQQIQKQIVAIMKQIVAIVKQISAITP
modifications: Alphabody helix sequence scAB_Env03mut
Regarding B7, the tendency to aggregate entry in data set [4] is reported as “None of the three Alphabodies showed tendency to aggregate”.

B8: scAB_Bis: optimized bispecific single-chain Alphabody binding gp41 HR2 and N-trimer, SEQ ID No: 78 (protein)
chain: MGHHHHHHHHHHSSHIEGRHGSAIQQIQKAIATIQKAIAWIQKKIYMITGGSGGSGGDMAMYAIQIAILIIQAQIQQIQNEIALMTLGSGGGGSGGDIQQIQKQIVAIMKQIVAIVKQISAITP
modifications: Alphabody helix sequence scAB_Bis
For the molecule B8, the tendency to aggregate result in data set [4] is reported as “None of the three Alphabodies showed tendency to aggregate”.
